Reference: the supplement of paper PMC10065799, “High-throughput profiling of sequence recognition by tyrosine kinases and SH2 domains using bacterial peptide display” (eLife, 2023)

These sequences were tested against Jak2 (UniProt O60674) (assay: phosphorylation enrichment, bacterial display (enrichment ratio); higher = better substrate or ligand; peptides without Tyr show the background).
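Further: 11-residue human phosphosite peptides and single-mutation variants displayed on the E. coli surface, counted by deep sequencing, each peptide's frequency after selection divided by its frequency in the unselected input library; frequency after pTyr selection over input frequency; kinase dosed for 20-30% of maximal phosphorylation in three min.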

Jak2, sequence (O60674 whole entry, looked up): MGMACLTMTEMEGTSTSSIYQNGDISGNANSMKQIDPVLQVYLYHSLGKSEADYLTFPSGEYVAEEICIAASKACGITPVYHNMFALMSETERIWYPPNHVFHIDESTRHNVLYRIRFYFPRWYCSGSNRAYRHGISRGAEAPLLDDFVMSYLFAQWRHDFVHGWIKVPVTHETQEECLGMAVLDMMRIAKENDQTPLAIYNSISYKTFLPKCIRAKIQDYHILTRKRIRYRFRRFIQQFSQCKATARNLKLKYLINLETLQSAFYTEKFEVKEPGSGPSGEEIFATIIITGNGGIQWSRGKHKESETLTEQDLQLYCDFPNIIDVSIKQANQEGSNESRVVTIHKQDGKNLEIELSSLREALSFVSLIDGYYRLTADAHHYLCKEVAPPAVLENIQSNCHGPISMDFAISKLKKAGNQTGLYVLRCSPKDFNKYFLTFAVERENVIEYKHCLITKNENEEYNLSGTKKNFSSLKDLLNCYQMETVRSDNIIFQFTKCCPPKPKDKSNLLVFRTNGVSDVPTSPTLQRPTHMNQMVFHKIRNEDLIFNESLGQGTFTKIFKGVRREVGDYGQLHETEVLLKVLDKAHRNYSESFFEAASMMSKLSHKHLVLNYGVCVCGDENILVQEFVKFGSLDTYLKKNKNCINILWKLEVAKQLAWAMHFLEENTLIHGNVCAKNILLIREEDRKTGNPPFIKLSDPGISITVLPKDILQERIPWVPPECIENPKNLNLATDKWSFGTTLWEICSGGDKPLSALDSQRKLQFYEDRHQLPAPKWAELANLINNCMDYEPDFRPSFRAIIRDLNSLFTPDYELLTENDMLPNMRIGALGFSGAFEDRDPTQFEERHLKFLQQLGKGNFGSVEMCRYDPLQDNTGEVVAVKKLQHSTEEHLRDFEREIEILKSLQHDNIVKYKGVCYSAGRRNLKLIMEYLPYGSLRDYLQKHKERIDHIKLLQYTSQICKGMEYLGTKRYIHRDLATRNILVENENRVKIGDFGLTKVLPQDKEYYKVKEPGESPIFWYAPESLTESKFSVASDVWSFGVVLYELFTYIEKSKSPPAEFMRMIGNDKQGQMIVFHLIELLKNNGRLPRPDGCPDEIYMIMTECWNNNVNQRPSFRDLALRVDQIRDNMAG

Sequence	phosphorylation enrichment
VVAHQYSFAPD [TNS3_Y601]	0.529
GVSYIYTIDGS [DCX_Y105_R102S]	0.944
IDPYTYTPFGS [CYP3A4_Y432_I431T]	0.907
IDPFTYTPFGS [CYP3A4_Y432_I431T_YF]	0.755
FDKEFYSVHNK [MET_Y1235_YF]	0.866
QTSTDYDIRFY [CSNK2A1_Y131_L128S]	1.47
AVLSLYASDRT [ACTA1_Y145_G148D]	0.884
QMVGMYASSFM [AVPR2_Y124_YF]	1.21
EEVGIYRMSGV [BCR_Y1089_V1091M]	1.12
DNPAKYFILEN [DPP10_Y512_S517N]	1.41
RDLTDYLMKIL [ACTA1_Y190]	1.16
LIFVSYDDWDF [GRIN2A_Y281_S278F_YF]	4.29
PPPPAYDDVAQ [TNK2_Y635]	1.03
KDHPDYKFQLR [SOX10_Y171_P175L_YF]	0.698
SSMSDYNPLEK [MYOC_Y479_I477S]	0.756
SIKDKYVMALY [KCNH2_Y611_T613M]	0.648
EWRSPYGLTPR [GRIN3B_Y601]	0.459

Sequence	phosphorylation enrichment
QEKKGYFEDRR [GLUL_Y336]	0.628
YRVAGYETQGG [TIA1_Y383]	0.392
HNQDGYSFPSR [LDLR_Y845_YF]	1.55
LTSVKYLLSAT [GSDMC_Y26_P23S]	0.818
ITQRAYRRHLL [SCN1A_Y1926_I1922T]	0.573
IVKAFYVHARA [AIPL1_Y268_R270H_YF]	0.955
RKPDIYERLAS [MCM4_Y459]	0.702
ENQEIYRKAFD [KPNA1_Y493_Q494R]	1.3
HHTNEYEYDEL [TGM1_Y134_D132N]	1.18
NQILPYIEELV [PPP2R1B_Y341_K343E]	1.45
LKRIAYFLCLL [LGI1_Y21]	1.09
KIKGRYEKCEP [KRT26_Y119_W118R]	1.37
GAAMLYFPSVS [GPR143_Y177_YF]	1.36
SVTCTYSPGLN [TP53_Y126_A129G]	1.46
RPFSPYIIRGM [LRP5_Y1531_R1529S_YF]	0.92
EDDIIYTQDFM [STK11_Y362_T367M]	1.21

Each sequence was assayed against Fyn (UniProt P06241) in the same assay as above.
Fyn, sequence (P06241 whole entry, looked up): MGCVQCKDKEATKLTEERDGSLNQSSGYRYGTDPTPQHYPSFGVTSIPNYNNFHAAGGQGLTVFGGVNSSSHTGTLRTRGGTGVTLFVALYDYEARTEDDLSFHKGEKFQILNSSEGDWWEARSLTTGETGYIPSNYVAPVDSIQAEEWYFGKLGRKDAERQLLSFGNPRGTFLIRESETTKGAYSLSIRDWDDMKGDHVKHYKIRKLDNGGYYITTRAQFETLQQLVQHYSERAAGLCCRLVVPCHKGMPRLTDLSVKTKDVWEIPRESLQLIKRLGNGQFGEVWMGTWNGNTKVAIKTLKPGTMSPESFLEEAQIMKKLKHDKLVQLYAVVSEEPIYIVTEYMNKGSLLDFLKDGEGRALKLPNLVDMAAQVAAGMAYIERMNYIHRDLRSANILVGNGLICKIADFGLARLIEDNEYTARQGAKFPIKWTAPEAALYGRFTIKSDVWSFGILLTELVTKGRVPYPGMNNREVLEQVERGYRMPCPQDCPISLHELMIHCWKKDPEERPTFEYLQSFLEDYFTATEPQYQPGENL

Sequence	phosphorylation enrichment
VVAHQYSFAPD [TNS3_Y601]	0.542
GVSYIYTIDGS [DCX_Y105_R102S]	5.77
IDPYTYTPFGS [CYP3A4_Y432_I431T]	7.04
IDPFTYTPFGS [CYP3A4_Y432_I431T_YF]	0.91
FDKEFYSVHNK [MET_Y1235_YF]	0.479
QTSTDYDIRFY [CSNK2A1_Y131_L128S]	0.981
AVLSLYASDRT [ACTA1_Y145_G148D]	0.637
QMVGMYASSFM [AVPR2_Y124_YF]	1.59
EEVGIYRMSGV [BCR_Y1089_V1091M]	6.38
DNPAKYFILEN [DPP10_Y512_S517N]	0.459
RDLTDYLMKIL [ACTA1_Y190]	0.554
LIFVSYDDWDF [GRIN2A_Y281_S278F_YF]	1.02
PPPPAYDDVAQ [TNK2_Y635]	0.45
KDHPDYKFQLR [SOX10_Y171_P175L_YF]	0.409
SSMSDYNPLEK [MYOC_Y479_I477S]	0.47
SIKDKYVMALY [KCNH2_Y611_T613M]	0.483
EWRSPYGLTPR [GRIN3B_Y601]	0.657

Sequence	phosphorylation enrichment
QEKKGYFEDRR [GLUL_Y336]	0.906
YRVAGYETQGG [TIA1_Y383]	0.378
HNQDGYSFPSR [LDLR_Y845_YF]	0.996
LTSVKYLLSAT [GSDMC_Y26_P23S]	0.418
ITQRAYRRHLL [SCN1A_Y1926_I1922T]	0.444
IVKAFYVHARA [AIPL1_Y268_R270H_YF]	0.585
RKPDIYERLAS [MCM4_Y459]	0.99
ENQEIYRKAFD [KPNA1_Y493_Q494R]	0.431
HHTNEYEYDEL [TGM1_Y134_D132N]	0.952
NQILPYIEELV [PPP2R1B_Y341_K343E]	0.53
LKRIAYFLCLL [LGI1_Y21]	0.506
KIKGRYEKCEP [KRT26_Y119_W118R]	0.412
GAAMLYFPSVS [GPR143_Y177_YF]	0.445
SVTCTYSPGLN [TP53_Y126_A129G]	0.525
RPFSPYIIRGM [LRP5_Y1531_R1529S_YF]	0.98
EDDIIYTQDFM [STK11_Y362_T367M]	1.03
